Results as given in the DeepSol protein solubility set.

Experiment: soluble on expression in E. coli; label from the status in PepcDB or PDB records

Sequence | soluble on expression in E. coli
MAELILNQRPYPRDLGKIVCVGRNYAAHAKELNNPIPSSPILFIKPASSAVPFGPVFSIPKDQGSVHHELEIAILIGKALSRASTEQVAESIAGIGLGLDLTLRDVQDQLKEKGHPWERAKSFDGACPLTEFVAVNLASEDEWQAIGLTLEKNGQFQQQGSSAEMLFPILPLIAHMSEHFSLQPGDVILTGTPAGVGPLEVGDSLSAKLSLEDNVLLTCDGVVI | soluble
MGSDKIHHHHHHKETSEKPVLFPDYADVTIPYNIAPLNFKIENPHAEAFAVLKFGEEKIQVKEKGGQFYLPASDWRKLLKRATGKAIQVKLYAKDKEWLAYPEFSLFVAPEPMDSYLAYRLIEPGYELWNQMGIYQRNLEDYKQSPIMENKYSGQNCMNCHSFCMQNPDKMLFHMRDKYSGTYLIDGDKIEKLNTKTDQTISPLVYPSWHPSGKYVAFSVNQTSQSFHANDKNRVEVFDSQSDVVVYDTEKHEIISTPSIRTAKAFETFPTFSPDGKTLYFCSAEARSMPHEYSEVKYNLCSIAFDPVTRSFGSRIDTLYNAGKDGKSASFPRVSPDGKFLLYTLSGYGNFSIWHKDADLYLLDIASGISHSLQNANSTDTESYHSWSSNSRWIVFSSRRIDGLYTRPYFAYIDEEGNASKPFLLPQKDTDYYHRFMKSYNIPEFITGKVSSKIRALSTLAKEDKGIDVTYRK | not soluble
MSSHKEEPLEADVDQLTQYRERCADHVTEFKSILDECNDRVNSRSNTEETCHQEMADYVHHLDHCAMPKAFASLK | not soluble
GSHMRTIIALETHDVRFPTSRELDGSDAMNPDPDYSAAYVVLRTDGAEDLAGYGLVFTIGRGNDVQTAAVAALAEHVVGLSVDKVIADLGAFARRLTNDSQLRWLGPEKGVMHMAIGAVINAAWDLAARAANKPLWRFIAELTPEQLVDTIDFRYLSDALTRDEALAILRDAQPQRAARTATLIEQGYPAYTTSPGWLGYSDEKLVRLAKEAVADGFRTIKLKVGANVQDDIRRCRLARAAIGPDIAMAVDANQRWDVGPAIDWMRQLAEFDIAWIEEPTSPDDVLGHAAIRQGITPVPVSTGEHTQNRVVFKQLLQAGAVDLIQIDAARVGGVNENLAILLLAAKFGVRVFPHAGGVGLCELVQHLAMADFVAITGKMEDRAIEFVDHLHQHFLDPVRIQHGRYLAPEVPGFSAEMHPASIAEFSYPDGRFWVEDLAASKAKA | soluble
MPYPKKVTIKEVGPRDGLQNEPVWIATEDKITWINQLSRTGLSYIEITSFVHPKWIPALRDAIDVAKGIDREKGVTYAALVPNQRGLENALEGGINEACVFMSASETHNRKNINKSTSESLHILKQVNNDAQKANLTTRAYLSTVFGCPYEKDVPIEQVIRLSEALFEFGISELSLGDTIGAANPAQVETVLEALLARFPANQIALHFHDTRGTALANMVTALQMGITVFDGSAGGLGGCPYAPGSSGNAATEDIVYMLEQMDIKTNVKLEKLLSAAKWIEEKMGKPLPSRNLQVFKSSLEHHHHHH | soluble
MGSDKIHHHHHHMNRLEIVNNISTNIERERIKLGMSQAQFAKALDMSLSTYKRIANGESSRIDVYTAYLIYKLTGRFSCELTGFNDDVINLVKRIKKLSKSQRILIDSIIDTELALSAYKDESCHTEDLISVLIPTGNMTDGMILDSYNVEKLDVSNYRKAFGDALHIGIRITSNHLHPVYNKGDILLISRNPIRDGDTGIFINAQNKRAYIRKLHQKNPCELTPINNYGETFYVDSDNVDDMSKWIKFGHVLCKVR | not soluble
MNIDSDIFKIQSNNVLPSRGKILISEPFLRDATFGRSVVLLIDHTEEGSMGLIINKQLPIFVNDIIKEFKYIENIPLYKGGPIATDTLFYLHTLADIPGAIPISKGLYLNGDFDEIKKYILQGNKVDRYIRFFLGYSGWESEQLSTELKENTWLVSKEENAYLMNGDTKDMWKQALEKLGSKYETWSRFPQVPTFNLEHHHHHH | soluble
MGSDKIHHHHHHVDTGNRPSILRMPAQEDFVRFKPGFGTRFLLTVDTEEEFDWSKPLDRTSHGLHHVPRLAKFQQFCEGVGVVPVYLVDFPVASDPRAADILRDAVHAGKAEIGVQLHPWVSPPHDEDVNVHNSFAGNLAPELERAKFRKLRDTIEQAFGVGPLIYRAGRYGVGPATASILSDCAIAIDTSVRSRFDYSSAGGPNFREYPLRPWWIDKRNGLMEMPLTTVFSGLLRQQGQTIYPALWRVPRLRGALARIGMLERIPLTPEGVTLDEAIKGIDMALDDGLEMLVFSFHSPSLCPGHTPYVRDESDLDLFYAWWRGVLTYMQQRNVKPTCVREIMEAAEI | not soluble
MGSDKIHHHHHHMKNLLITVFFLSLTLQLSAETGGSNAVIVEKTTASPAEKTPVYWQKMADGMSQALIKHFWGANFKGYENRFYFNYGSDLSNMTTNHYWPQAHAMDVMVDAYMRTGSKQYLNIYPLWWEGAPKFNFAGREEDPWWNVFVDDMEWIALAQIRMFESTKNTKYLKKARQTYDDWVWSTWGPEDEAPWFGGITWKTDVAKSKNACSNGPAALIAARLYNFYDAMGKKAGKPKQAYLNEAIKIYTWEKNNLFDRQTGAVYDSMNGEGKITKWVFSYNSGTFLGAAHELYKITGDKQYLADAVKAANFVIDHLSTNEGVLSDAEGGDGGLFHGIFFRYFVKLINDPALDSANYNKFRDYITHCATVMAEQGVNQKTMLYSGRWRKAPADDESVGLTSHLTGCMLMEAMCVLKHR | not soluble
MNEHIESYHRILEEECLSINEFESFAEAYTIVNEFIKLYNTKRIHSSTKYMPPAEFYEHLRISGETVNMRL | not soluble
TKLSPELLVKLGSEGVLAGVKDSSGDDVSFRRLVMLNKKAGSPLTLLTGHEAVVDGAFIAGADGCVPGLGNVDPAGYVRMWKAAEAGDWATVQKEQDRLAALFEIVFQPIGKVGPAAGVGSFKTALE | not soluble
PFKESQARGLLQDNMANSYNGGDFEDGLLNLSKEVFPTDKYLYQDGQFLDKKTINAYLNPKYTKREIDKMSEKDKKDKKANENLGLNPSHEGETNPEKIAEKSPAYLSNILEQDFYGGGDTKGKNIKGMTIGLAMNSVYYYKKEKDGPTFSKKLDDSEVKKQGKQMASEILSRLRENDDLKDIPIHFAIYKQSSEDSITPGEFITQATAEKSQTKLNEWHNINEKSALLPSSTAADYDENLNNNFKQFNDNLQSYFSNFTQAVGKVKFVDKKPQRLVVDLPIDYYGQAETIGITQYVTEQANKYFDKIDNYEIRIKDGNQPRALISKTKDDKEPQV | not soluble
MGSDKIHHHHHHMTIMDWNTIKGLVPVSGVQPDFVNCLDAFPVLKRAKETPQEPRYHGEGDVWTHTMMVIESLLQLPDYQTATREQQEILFFAALLHDVAKYRTTVIDPVTGQIGQPGHSRKGAIDARVLLWDADVPFAIREAICRLIAVHQVPFYCLEDERRRVSPIFTIRELSWQLSIPLLATLAEADIRGRICQDQTRVLDSIELFRELAREEGCYGQPRAFVDAHTRLSYFRGADVHPDYPLFQEPGSKVTVMCGLPASGKDTWVRTHRHDLPVVSFDDARTELGLKHGENEGKAVHWATDKARSLLRTHEPFVWNATHLSQQMRTRTLDLCYAYGAEVEIVYLERPRQELLRRNGKRDTTLSNKTLQGMLTKWELPSPTEAHVVRYES | not soluble
MGSDKIHHHHHHMPASSHQPLDLAKFTLSSPTEIAQHLSNIAKHGHMVTVFANKGKNFILTRLLEVDYQAGVFTFDWGAEEETNTQVLNSERNVFVCSPEGVKTQFVAGQISQVMVDDRPAFQCRLPEQVIKLQRREFFRIQTPLGSPVFCRIGDFNQRSIDLALFDISLGGMSLWLPGIDTPGFDIGQQYLQCSIDLKPFGTLALGIEVRHRLTARMRNGNEAMRIGCSYLNLSAPMETIIQRYVGFLERERRAMVG | not soluble
MQLKTEYGKIDPYITKDGSIIRELMHPAIHGNSGQSLAEATVPAGGQTMLHKHAVAEEIYHITEGCGIMTLGGQEFEIRKGDTVCILPGTPHRIMNTGEKELKILCCCAPAYSHEDTELMKLEHHHHHH | soluble
MKIAYLGPKGSFSHHVVQTAFPHEELQAFANITDVIKAYEQGLVNYSVVPVENSIEGSVHETLDYLFHQAHIQAVAEIVQPIHQQLMVVPGHTKIEKIFSHPQALAQGKKFIDEQYPEAQIEVTASTAYAARFISEHPDQPFAAVAPRSSAEEYGLELIAEDIQEMEANFTRFWVLGAEKPSIPLQAQTEKMSLALTLPDNLPGALYKALSTFAWRGIDLTKIESCPLKTALGEYFFIIDVDYTDKDLVHFAQKELEAIGIQYKILGAYPIYPISDHGKERR | soluble
SANEAYPCPCDIGHRLEYGGLGREVQVEHIKAYVTKSPVDAGKAVIVIQDIFGWQLPNTRYIADMISGNGYTTIVPDFFVGQEPWDPSGDWSIFPEWLKTRNAQKIDREISAILKYLKQQCHAQKIGIVGFCWGGTAVHHLMMKYSEFRAGVSVYGIVKDSEDIYNLKNPTLFIFAENDVVIPLKDVSLLTQKLKEHCKVEYQIKTFSGQTHGFVHRKREDCSPADKPYIDEARRNLIEWLNKYM | soluble
MSLLSGSFLEENMKHLDTYIAFDLEFNTVNDVSHVIQGSAVKYDHHKEVDSFDTYVYTDVPLQSFINGLTGITSNKIAAAPKVEEVMAAFKNFVGELPLIGYNAQKSDLPILAENGLDLRDQYQIDLFDEAYDRRSADLNGIANLRLQTVATFLGIKGRGHNSLEDARMTAAIYESFLETDTNKAYLSQQEEVITDNPFVALGGFFDEGHHHHHH | not soluble
MRPFILLALLVSVTVAFNIFRDEVVPEEQLLAVRRTTRDASDSSSDSDEKDDAKTTVTVSFGLSGSQAWPIFQFFSFALKTKKKSKFFRRSGYELRPRP | not soluble
MSSKKNFEVGENVACIYKGKPYDAKITDIKTNSDGKELYCVHFKGWNNRYDEKIPVGEEKDRIFKGTASEYAEKHNAELPTTALKPKKKSLAAEAPRDDRDDTPGTSKGKKAKSVTIAPVMTADDMKVELPKPLRKILIDDYDLVCRYFINIVPHEYSVDQIIEDYIKTIPVSNEQMRTVDDLLIEYEEADIKITNLALICTARGLVDYFNVTLGYQLLYKFERPQYNDLVKKRAMEKGIDITNPTALQDSGFRPSQEYGIVHFLRMLAKLPDYLKLTQWNDHVINRIMIGVHDLIVFLNKNHGKYYRGSSDYQGASNDYYRRSLAADDGVGANQ | not soluble
EVKDYMSQPVVLRENTTVYDAICTIFLEDVSTLFIINEDNDFVGVCSRKDLLRASMIGADIHTVPISVNMTRMPNVTYLEESELVIYAADRMIEKEIDSIPIVRKKDNQKYEVIGRISKTTIAKLLVALYKE | not soluble
MLKLGVIGTGAISHHFIEAAHTSGEYQLVAIYSRKLETAATFASRYQNIQLFDQLEVFFKSSFDLVYIASPNSLHFAQAKAALSAGKHVILEKPAVSQPQEWFDLIQTAEKNNCFIFEAARNYHEKAFTTIKNFLADKQVLGADFNYAKYSSKMPDLLAGQTPNVFSDRFAGGALMDLGIYPLYAAVRLFGKANDATYHAQQLDNSIDLNGDGILFYPDYQVHIKAGKNITSNLPCEIYTTDGTLTLNTIEHIRSAIFTDHQGNQVQLPIQQAPHTMTEEVAAFAHMIQQPDLNLYQTWLYDAGSVHELLYTMRQTAGIRFEAEK | soluble
MSLNFIDEFRDKESILALKKLIEQELKNPINIMEICGGHTHSIMKYALPSILPKEINFIHGPGCPVCVMPRVRIDTAIKLASMKDTIFCTLGDLLRVPGSEISLLDLRAKGADVRALYSPLEVLEIAKQNLNKNIIFFAIGFETTTPMSALLLQKVIEEKINNVFFHINHITVPAPVEAIMNDENVKINAFLGPSHVSVITGYGIYEPLAAKFKTPIAVSGFEPVDILESVLNIIKQSNEGTFKVYNQYKRAVSKEGNVKAQNLVKKYFRVCDFEFRGLGLIKNGGLELKEEFSAYDASKKFDCTVQSKNESKACICGQILRGLAKPYDCKVFGKACTPRSPIGSCMVSGEGACAAYYKYSKVNAEGHHHHHH | soluble
